In patent US20190194356A1 (CHANGZHOU BOJIA BIOTECHNOLOGY, published 2019):

Tests used:
[1] = biological target: T1, human PCSK9 antigen (GeneBank AX127530.1) (human, UniProt Q8NBP7 31-692); assay: cell-based or functional assay
[2] = biological target: T1, human PCSK9 antigen (GeneBank …); assay: BLI (Octet Red 96), antibody on anti-human IgG Fc (AHC) biosensor, PCSK9 in solution, 1:1 model
Procedure: (§1) The ability of PCSK9 mAbs to bind to human, mouse or cynomolgus PCSK9 was characterized using the Octet Red 96 system (ForteBio). A kinetic-grade biosensor (Fortebio, #18-5063) of anti-human IgG Fc (AHC) was immersed in assay buffer after glycine pretreatment at pH 1.7. The PCSK9 monoclonal antibody to be detected was immobilized to the AHC biosensor at a concentration of 10 μg/ml for 120 seconds. The AHC biosensor loaded with the PCSK9 monoclonal antibody was then immersed in human PCSK9 antigen (GeneBank AX127530.1), mouse PCSK9 antigen (NCBI NM_153565.2) or cynomolgus PCSK9 antigen (NCBI NM_001112660.1) of different concentrations and buffer. The final dilution point of the analyte column only contained the detection buffer to test the non-specific binding between the buffer and the loaded biosensor. Antigen-antibody binding was detected from 80 to 120 s, and dissociation was detected from 120 to 180 s. A 60 second baseline was determined with the assay buffer. The affinity curves for anti-PCSK9 monoclonal antibodies were fitted using a 1:1 binding kinetic sensing monovalent binding model.

[3] = biological target: T2, mouse PCSK9 antigen (NCBI NM_153565.2) (mouse, UniProt Q80W65 35-694); assay: as above
T2 construct: also called msPCSK9
Procedure: as §1

[4] = biological target: human PCSK9 mutant protein R306S (human, UniProt Q8NBP7 31-692); assay: BLI (Octet Red 96), antibody on AHC biosensor, PCSK9 mutant in solution
Procedure: as §1
(§2) Human PCSK9 protein had different mutants. It was reported in the literature that there were many human PCSK9 mutants associated with hyperlipidemia. The inventors selected human PCSK9 mutant proteins of R218S, R306S, D374H, and D374Y among them, wherein the ability of PCSK9 mAbs of the invention in binding to different mutant PCSK9 proteins was characterized using the Octet Red 96 system (ForteBio) as described above. The kinetic analysis was shown in FIG. 7 and Table 9, except for R306S, the affinities of other human PCSK9 protein mutants to the PCSK9 monoclonal antibodies of the invention (normal IgG and long half-life IgG forms) were of the same order of magnitude as native human PCSK9 protein. Among them, the kon-binding ability of long half-life PCSK9 monoclonal antibody 9M284-QL to PCSK9 R218S protein was three times higher than that of 9M284 antibody.

[5] = biological target: human PCSK9 mutant protein D374Y (human, UniProt Q8NBP7 31-692); assay: as above
Procedure: as §1, §2

[6] = biological target: human PCSK9 mutant protein D374H (human, UniProt Q8NBP7 31-692); assay: as above
Procedure: as §1, §2

[7] = biological target: T3, human PCSK9 mutant protein R218S (human, UniProt Q8NBP7 31-692); assay: as above
T3 construct: also called PCSK9 R218S protein
Procedure: as §1, §2

[8] = biological target: T1, human PCSK9 antigen (GeneBank …); assay: BLI (Octet Red 96), antibody on AHC biosensor, human PCSK9 in solution, 1:1 model
Procedure: as §1
The specific experimental procedures were shown in Example 4 and Example 5. As shown in FIG. 5 and Table 7, the affinity of the long half-life antibody 9M284QL to human PCSK9 protein was substantially identical to 9M284 because the Fab region (containing VH and VL) of the engineered antibody 9M284QL was not changed compared to 9M284. As the affinity was not changed, the long half-life Fc-modified PCSK9 antibody 9M284QL, 9M284YTE and the conventional half-life antibody 9M284 had similar EC50 in the comparative test of cellular LDL uptake experiment, as shown in FIG. 6 and Table 8.

[9] = biological target: T1, human PCSK9 antigen (GeneBank …); assay: cell-based or functional assay; remark: listed apart in the source
[10] = biological target: neonatal Fc receptor FcRn; assay: ELISA at pH 6.0, antibody coated at 10 µg/mL, His-tagged FcRn titrated, anti-His-Tag-HRP
Procedure: (§3) The target antibody was diluted to 10 μg/mL with coating solution (15 mM Na₂CO₃, 35 mM NaHCO₃, pH 9.6), and then added to a 96-well ELISA plate at a dose of 100 μL/well and incubated at 4° C. overnight for coating. After coating, the sample wells were washed with PBST, pH 7.4 4 times, added with 300 μL/well of 4% skim milk (PBS, pH 7.4), and incubated at 25° C. for 2 hours for blocking. After blocking, the sample wells were washed 4 times with PBST, pH 7.4, added with 100 μL/well of FcRn diluted with 0.4% skim milk dissolved in PBST (pH 6.0/7.4, respectively) (initial concentration 20 μg/mL, 2-fold gradient dilution, with 11 concentration gradients in total), and incubated at 25° C. for 1.5 hours. After incubation, the sample wells were washed 4 times with PBST, pH 6.0/7.4, added with anti-His-Tag-HRP diluted in 0.4% skim milk (1/500) (pH 6.0/7.4, respectively), and incubated at 25° C. for 1 hour. After incubation, the sample wells were washed 4 times with PBST, pH 6.0/7.4, and added with 100 μL/well of TMB for development (development conditions: 25° C., 10 to 15 minutes). After development, 100 μL/well of 1 M […] was added to stop the development reaction, and the absorbance at 450 nm was read out (background correction was performed by the subtraction of the absorbance at 650 nm).

[11] = biological target: T3, human PCSK9 mutant protein R218S; assay: BLI (Octet Red 96); reference 9M284
Procedure: as §1
Human PCSK9 protein had different mutants. It was reported in the literature that there were many human PCSK9 mutants associated with hyperlipidemia. […]

[12] = biological target: neonatal Fc receptor FcRn; assay: ELISA at pH 6.0, antibody coated, His-tagged FcRn titrated; reference 9M284
Procedure: as §3

T1 sequence (Q8NBP7 31-692 limits assumed): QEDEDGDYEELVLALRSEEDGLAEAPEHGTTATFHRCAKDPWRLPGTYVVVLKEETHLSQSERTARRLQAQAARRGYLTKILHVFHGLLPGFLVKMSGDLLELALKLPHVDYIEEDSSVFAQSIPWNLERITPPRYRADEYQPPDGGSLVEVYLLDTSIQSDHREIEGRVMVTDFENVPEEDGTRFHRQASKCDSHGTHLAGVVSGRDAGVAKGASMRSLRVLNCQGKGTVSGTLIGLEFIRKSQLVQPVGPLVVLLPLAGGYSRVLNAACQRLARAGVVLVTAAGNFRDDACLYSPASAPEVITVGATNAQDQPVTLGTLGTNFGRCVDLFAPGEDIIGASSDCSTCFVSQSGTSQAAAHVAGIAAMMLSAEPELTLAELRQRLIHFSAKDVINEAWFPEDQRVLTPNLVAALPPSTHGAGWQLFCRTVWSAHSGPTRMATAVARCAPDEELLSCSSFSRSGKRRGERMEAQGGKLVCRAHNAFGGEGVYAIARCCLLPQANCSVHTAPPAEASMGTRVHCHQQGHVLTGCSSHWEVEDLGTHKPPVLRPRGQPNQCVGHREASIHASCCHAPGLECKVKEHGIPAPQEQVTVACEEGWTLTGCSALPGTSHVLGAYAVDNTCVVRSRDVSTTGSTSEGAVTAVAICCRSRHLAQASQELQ
T3 sequence (Q8NBP7 31-692 R218S limits assumed): as the sequence (Q8NBP7 31-692 limits assumed) above, with R188S counted along it
T2 sequence (Q80W65 35-694 limits assumed): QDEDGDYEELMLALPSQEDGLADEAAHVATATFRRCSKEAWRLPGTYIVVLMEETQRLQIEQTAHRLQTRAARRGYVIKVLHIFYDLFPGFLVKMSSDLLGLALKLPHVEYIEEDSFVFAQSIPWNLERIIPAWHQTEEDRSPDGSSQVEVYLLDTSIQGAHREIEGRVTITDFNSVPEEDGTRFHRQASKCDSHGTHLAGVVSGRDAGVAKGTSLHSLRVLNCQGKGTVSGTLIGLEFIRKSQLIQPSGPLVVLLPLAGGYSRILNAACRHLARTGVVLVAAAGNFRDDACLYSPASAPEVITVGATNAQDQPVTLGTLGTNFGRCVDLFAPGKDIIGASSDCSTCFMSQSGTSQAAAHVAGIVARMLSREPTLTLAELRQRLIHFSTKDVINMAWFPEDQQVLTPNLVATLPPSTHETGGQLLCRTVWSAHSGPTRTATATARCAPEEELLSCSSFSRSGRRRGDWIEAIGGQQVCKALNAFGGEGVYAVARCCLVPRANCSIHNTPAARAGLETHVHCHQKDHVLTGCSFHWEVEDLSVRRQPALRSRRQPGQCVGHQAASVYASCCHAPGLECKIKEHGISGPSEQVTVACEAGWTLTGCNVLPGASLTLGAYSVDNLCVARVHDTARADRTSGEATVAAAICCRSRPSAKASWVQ
Chain of human PCSK9 mutant protein R306S (Q8NBP7 31-692 R306S limits assumed): as the sequence (Q8NBP7 31-692 limits assumed) above, with R276S counted along it
Chain of human PCSK9 mutant protein D374H (Q8NBP7 31-692 D374H limits assumed): as the sequence (Q8NBP7 31-692 limits assumed) above, with D344H counted along it
Chain of human PCSK9 mutant protein D374Y (Q8NBP7 31-692 D374Y limits assumed): as the sequence (Q8NBP7 31-692 limits assumed) above, with D344Y counted along it
Chain of neonatal Fc receptor FcRn (P55899 24-297, chain 1 of 2): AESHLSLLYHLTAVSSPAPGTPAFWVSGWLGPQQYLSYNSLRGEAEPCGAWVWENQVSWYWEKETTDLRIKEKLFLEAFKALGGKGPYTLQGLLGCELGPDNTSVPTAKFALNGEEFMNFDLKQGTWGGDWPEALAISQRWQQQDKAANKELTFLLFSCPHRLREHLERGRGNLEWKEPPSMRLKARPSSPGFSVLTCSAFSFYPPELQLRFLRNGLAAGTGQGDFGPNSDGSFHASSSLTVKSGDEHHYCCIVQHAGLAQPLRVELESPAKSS
Chain of neonatal Fc receptor FcRn (P61769 21-119, chain 2 of 2, further chain): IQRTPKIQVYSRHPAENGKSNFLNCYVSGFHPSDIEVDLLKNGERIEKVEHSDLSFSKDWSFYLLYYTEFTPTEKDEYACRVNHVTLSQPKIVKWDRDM

B1: monoclonal antibody 9M283 (antibody, human IgG2, lambda, V domains shown)
VH: QVQLVQSGAEVKKPGSSVKVSCKASAFTFDSFGMHWVRQAPGQGLEWMGLLWSDGSDEYYADSAKGRFTISRDNSKNTLYLQMNSLRSDDTAVYYCARALGAIYSYYAMDVWGQGTTVTVSS
VL: QSALTQPPSVSGSPGQSVTISCTGTSSNIGNQFVSWYQQLPGTAPKLMIYEYNKRPSGVPDRFSGSKSGNTASLTISGLQTGDEADYYCGSWDSSLSGYVFGTGTRVTVLG
notes: the claims call them variable regions; also called PCSK9 monoclonal antibody 9M283
[1]
  IC50, cellular LDL uptake assay (HepG2 cells, Dil-LDL, 20 µg/ml human PCSK9): 6.12 nM
[2]
  Kd: < 0.001 nM
  koff: < 1e-07 s⁻¹
  kon: 399000 M⁻¹ s⁻¹
[3]
  Kd: 14 nM
  koff: 0.0051 s⁻¹
  kon: 350000 M⁻¹ s⁻¹

B2: monoclonal antibody 9M284 (antibody, human IgG2, lambda)
heavy: QVQLVQSGAEVKKPGSSVKVSCKASAFTFDSFGMHWVRQAPGQGLEWMGLLWSDGSGEYYADSAKGRFTISRDNSKNTLYLQMNSLRSDDTAVYYCARAMGAIYYYYAMDVWGQGTTVTVSSASTKGPSVFPLAPCSRSTSESTAALGCLVKDYFPEPVTVSWNSGALTSGVHTFPAVLQSSGLYSLSSVVTVPSSNFGTQTYTCNVDHKPSNTKVDKTVERKCCVECPPCPAPPVAGPSVFLFPPKPKDTLMISRTPEVTCVVVDVSHEDPEVQFNWYVDGVEVHNAKTKPREEQFNSTFRVVSVLTVVHQDWLNGKEYKCKVSNKGLPAPIEKTISKTKGQPREPQVYTLPPSREEMTKNQVSLTCLVKGFYPSDIAVEWESNGQPENNYKTTPPMLDSDGSFFLYSKLTVDKSRWQQGNVFSCSVMHEALHNHYTQKSLSLSPG
light: QSALTQPPSVSGSPGQSVTISCTGTSSNIGNQFVSWYQQLPGTAPKLMIYEYNKRPSGVPDRFSGSKSGNTASLTISGLQTGDEADYYCGSWDSSLSGYVFGTGTRVTVLGQPKAAPSVTLFPPSSEELQANKATLVCLISDFYPGAVTVAWKADSSPVKAGVETTTPSKQSNNKYAASSYLSLTPEQWKSHRSYSCQVTHEGSTVEKTVAPTECS
notes: Fully human antibody from a phage library; the claims call 24 and 26 variable regions; also called PCSK9 monoclonal antibody 9M284
[1]
  IC50, cellular LDL uptake assay (HepG2 cells, Dil-LDL, 20 µg/ml human PCSK9): 5.75 nM
[2]
  Kd: < 0.001 nM
  koff: < 1e-07 s⁻¹
  kon: 366000 M⁻¹ s⁻¹
[3]
  Kd: 3 nM
  koff: 0.00094 s⁻¹
  kon: 320000 M⁻¹ s⁻¹
[4]
  Kd: 2.4 nM
  koff: 8.14e-05 s⁻¹
  kon: 33900 M⁻¹ s⁻¹
[5]
  Kd: < 0.001 nM
  koff: < 1e-07 s⁻¹
  kon: 21800 M⁻¹ s⁻¹
[6]
  Kd: < 0.001 nM
  koff: < 1e-07 s⁻¹
  kon: 24900 M⁻¹ s⁻¹
[7]
  Kd: < 0.001 nM
  koff: < 1e-07 s⁻¹
  kon: 11400 M⁻¹ s⁻¹
[8]
  Kd: < 0.001 nM
  koff: < 1e-07 s⁻¹
  kon: 56000 M⁻¹ s⁻¹
[9]
  EC50, cellular LDL uptake experiment: 4.52 µg/mL
[10]
  EC50: 71.9 µg/mL

B3: monoclonal antibody 9M284QL (antibody)
heavy: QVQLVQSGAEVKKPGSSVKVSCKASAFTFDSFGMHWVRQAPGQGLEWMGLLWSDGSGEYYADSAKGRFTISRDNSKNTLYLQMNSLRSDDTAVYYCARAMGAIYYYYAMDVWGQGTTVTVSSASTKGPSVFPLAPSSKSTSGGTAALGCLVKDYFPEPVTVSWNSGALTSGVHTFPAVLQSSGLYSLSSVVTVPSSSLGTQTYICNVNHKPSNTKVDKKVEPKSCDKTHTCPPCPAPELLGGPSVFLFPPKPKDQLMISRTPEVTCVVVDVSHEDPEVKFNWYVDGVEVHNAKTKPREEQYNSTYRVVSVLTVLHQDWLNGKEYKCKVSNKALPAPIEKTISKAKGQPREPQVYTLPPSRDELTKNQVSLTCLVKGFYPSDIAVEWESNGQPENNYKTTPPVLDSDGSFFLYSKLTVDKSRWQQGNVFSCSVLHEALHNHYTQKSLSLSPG
light: B2 light
notes: also called long half-life PCSK9 monoclonal antibody 9M284-QL
[4]
  Kd: 1.46 nM
  koff: 4.64e-05 s⁻¹
  kon: 31800 M⁻¹ s⁻¹
[5]
  Kd: < 0.001 nM
  koff: < 1e-07 s⁻¹
  kon: 29700 M⁻¹ s⁻¹
[6]
  Kd: < 0.001 nM
  koff: < 1e-07 s⁻¹
  kon: 26900 M⁻¹ s⁻¹
[7]
  Kd: < 0.001 nM
  koff: < 1e-07 s⁻¹
  kon: 36500 M⁻¹ s⁻¹
[11]
  fold higher kon than 9M284: 3 fold
[8]
  Kd: < 0.001 nM
  koff: < 1e-07 s⁻¹
  kon: 58500 M⁻¹ s⁻¹
[12]
  fold smaller EC50 than 9M284: 2.8 fold
[9]
  EC50, cellular LDL uptake experiment: 5.28 µg/mL
[10]
  EC50: 25 µg/mL

B4: monoclonal antibody 9M284YTE (antibody)
heavy: QVQLVQSGAEVKKPGSSVKVSCKASAFTFDSFGMHWVRQAPGQGLEWMGLLWSDGSGEYYADSAKGRFTISRDNSKNTLYLQMNSLRSDDTAVYYCARAMGAIYYYYAMDVWGQGTTVTVSSASTKGPSVFPLAPSSKSTSGGTAALGCLVKDYFPEPVTVSWNSGALTSGVHTFPAVLQSSGLYSLSSVVTVPSSSLGTQTYICNVNHKPSNTKVDKKVEPKSCDKTHTCPPCPAPELLGGPSVFLFPPKPKDTLYITREPEVTCVVVDVSHEDPEVKFNWYVDGVEVHNAKTKPREEQYNSTYRVVSVLTVLHQDWLNGKEYKCKVSNKALPAPIEKTISKAKGQPREPQVYTLPPSRDELTKNQVSLTCLVKGFYPSDIAVEWESNGQPENNYKTTPPVLDSDGSFFLYSKLTVDKSRWQQGNVFSCSVMHEALHNHYTQKSLSLSPG
light: B2 light
[12]
  fold smaller EC50 than 9M284: 2.8 fold
[9]
  EC50, cellular LDL uptake experiment: 4.36 µg/mL
[10]
  EC50: 24.3 µg/mL
